The supplement of paper PMC12764529
± gives the half width of the 95% confidence interval.

What was measured:
[1] = folding stability dG unfold from trypsin proteolysis; higher = more stable
Method in brief: (§1)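 Only designs with AlphaFold2 dimer inter-PAE above 15 were retained; each was a mini-protein under 80 residues with no cysteine, in a PA-tagged cDNA display construct. After digestion with trypsin and chymotrypsin and sequencing, K50 was inferred by Bayesian fitting of counts, and unfolding free energy was derived per protease or combined against a sequence-predicted unfolded-state K50 and a shared folded-state K50.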

[2] = folding stability dG unfold from chymotrypsin proteolysis; higher = more stable
Method in brief: as §1

[3] = folding stability dG unfold (combined trypsin and chymotrypsin); higher = more stable
Method in brief: as §1

Sequence | folding stability dG unfold [1] [kcal/mol] | folding stability dG unfold [2] [kcal/mol] | folding stability dG unfold [3] [kcal/mol]
SAGGSAGGSLHPSQPLLVTVEVEVDPETGTVRLRVSVWVPGPRERLLERELEVPLHSLPEGALSAGGSAGGS [r12_145_TrMRF] | 1.69 ± 0.039 | 2.49 ± 0.015 | 2.25 ± 0.091
SAGGSMQSVTSYDPNGVTYTTEFLPDEDVVTYTKTTDGTVTTTKVERLDEDGVPVPLSTSTTTLGGSAGGSA [r2_60_JUSTAS] | 0.208 ± 0.085 | -0.217 ± 0.29 | 0.107 ± 0.16
SAGGYLVRIEMPNGREHEYPVKDIDDAASRFRDHLGFPPNMKLKVEVYDPKDGEKKERTLTIPMPKPKSAGG [r13_145_TrROS] | 0.0313 ± 0.092 | 0.504 ± 0.12 | 0.378 ± 0.069
SAGMVKIEIEKKEDGEILITITAPSEEELKKLAEELAKELAKKLGIEEIEVKVEKLENGEYKVTIRIKKSAG [r5_772_TrROS_Hall] | 2.99 ± 0.14 | 3.09 ± 0.26 | 2.99 ± 0.23
SAGGMTIVLPNGITLTFYPDRTVTATVDFPGRPLTLTLDAASLAEAVAAVERAAAEWAAPAPPVVDLSSAGG [r13_896_TrMRF] | 2.56 ± 0.042 | 2.824 ± 0.013 | 2.72 ± 0.042
SSSLDYVFKDIDPSSPNKLTLSEIKPVPESDKVVNKIVFPTKTILVTFDSAEDAEAHIGLLLKLFGSPPESA [r9_258_TrMRF] | 0.66 ± 0.044 | 0.924 ± 0.12 | 0.852 ± 0.1
SAGGSAGGSAMSVTATVPEKPVTLTYIPPNTVTKTVIDPSTGTTTTTEVNLPPGVVPASLLLSAGGSAGGSA [r18_59_JUSTAS] | 0.313 ± 0.05 | -0.191 ± 0.13 | 0.14 ± 0.045
SAGGLLPALLAPGFRKPPELPLVVVEAPIEEAVALAKENPSLGVLLVRVGGKLYLIDPKTGKVAPLGSAGGS [r16_214_TrMRF] | 0.767 ± 0.018 | 1.6 ± 0.033 | 1.32 ± 0.056
SAGGSALPALAERFPDAEIEPVGDDGTSVTYRFRFPGGDYLLVTVPFLPGTTEAVVDIEWVPRDALSAGGSA [r15_547_TrMRF] | 1.68 ± 0.051 | 2.628 ± 0.012 | 2.35 ± 0.051
SAGGKKIKAKVIEIKKIGDKVLVTIERPDGSPDEVLIDKKEVAEKITPESEVEIEVFPDGSVKIKVGSAGGS [r16_2_TrMRF] | 1.96 ± 0.087 | 2.03 ± 0.13 | 2.15 ± 0.19
SAGGKKIEIEIVFKEGEKAPSAEEIAKKLLEEIPNIKITSIEIVDVEYDEETGEKYVVVKITIEVEPPSAGG [r13_10_TrROS_Hall] | 2.96 ± 0.18 | 3.14 ± 0.14 | 3.17 ± 0.28
SAGGNWIWRIKFPGRSIHFNWEQGNIEIWPPDGEEKTIPLPPGEPLEEFADEFAEKNGFDKVEIEPVPSAGG [r13_852_TrROS] | 2.08 ± 0.11 | 1.94 ± 0.24 | 1.95 ± 0.21
SAGGSAMVRLPDGTLVIDVKLPEDRPDAKVTVTVLEDGSPVGSVDVNTGKVTISVSPGVSVSITVESAGGSA [r15_180_JUSTAS] | 2.12 ± 0.051 | 1.53 ± 0.046 | 1.79 ± 0.052
SAGGKPVRIRSSNGWPIEINPEDGTIKVEFPGYEVEFEVKEDGTIQFQIRNPKDGKPIMPMTLQIEKSAGGS [r16_760_TrROS] | 0.694 ± 0.049 | 1.07 ± 0.093 | 0.98 ± 0.072
SAGGSAGGSKPNEIKIKKIKIEVKIKKKKVDKEKGEEIYEIEEVKIEIEEITLSKEELEKLLKSAGGSAGGS [r12_723_TrROS_Hall] | 1.54 ± 0.097 | 2.06 ± 0.088 | 1.94 ± 0.12
SAGVVVRPGEPVPFYVVRVETELRTRPRPDGSEVTTVETRVEVRPYTVTVGPVPVVEVPPDATDPADAASAG [r5_770_TrMRF] | 2.09 ± 0.2 | 3.96 ± 0.17 | 3.21 ± 0.16
SETETITVEVTMPAEELANMSAEELAARLREAFPDLKITSISITVEEVEDPETGERLVRVTVTITVERVPSA [r9_1189_TrROS_Hall] | 4.28 ± 0.11 | 3.4 ± 0.068 | 4.31 ± 0.15
PNMKMEWIQIPPGDLNDPVKIEAPLPPGTQIMIWVHDNGNGEWRPIFTVNNDEITIKNLPDADHVWVWVIKS [r1_224_TrROS] | 1.83 ± 0.13 | 2.71 ± 0.1 | 2.47 ± 0.28
SAGGSAGGSAGGSKPKVKITIEKNKETNEYTITIEKDGKKYTFVVKNLKPDDPAIKKALSAGGSAGGSAGGS [r4_328_TrROS_Hall] | 1.1 ± 0.043 | 3.007 ± 0.03 | 2.55 ± 0.09
SAGMTITVPGNVTVNVVITAYKFDENGNLIGPYTLVKPITVPENSTITIDLPNDEPNVVIIEIKAIPASAGG [r19_295_TrMRF] | 3.16 ± 0.15 | 4.81 ± 0.073 | 4.42 ± 0.18
SAGGSAGGSAGNIILPFEIESIDIEEETAIDPETGEPVKVKKILIRLKGTGKIIEISFTEKSAGGSAGGSAG [r3_424_TrMRF] | 2.76 ± 0.23 | 3.01 ± 0.11 | 2.88 ± 0.26
